For two molecules, Kd results are on record in publication PMC11570452, “MOTS-c modulates skeletal muscle function by directly binding and activating CK2” (iScience, 2024).

The target in this experiment is T1, CK2α (recombinant, GenScript) (UniProt P68400 1-391).
T1 construct: CK2α, catalytic alpha subunit of casein kinase II; No catalogue number, species or construct is printed; also called CK2α subunit; CK2 alpha; source: bought: GenScript
Put plainly: SPR; Biacore T200; MOTS-c or K14Q MOTS-c (10 μg/mL, 10 mM sodium acetate pH 5.0) immobilised on CM5 chip (278 RU and 193 RU); first 70 nM CK2α or CK2β, then CK2α at 2.5, 5.0, 10 and 20 nM flowed at 30 μL/min in 0.01 M HEPES, 0.15 M NaCl, 0.3 mM EDTA, 0.05% tween. Particulars: both partners purified.

T1 sequence (P68400 whole entry): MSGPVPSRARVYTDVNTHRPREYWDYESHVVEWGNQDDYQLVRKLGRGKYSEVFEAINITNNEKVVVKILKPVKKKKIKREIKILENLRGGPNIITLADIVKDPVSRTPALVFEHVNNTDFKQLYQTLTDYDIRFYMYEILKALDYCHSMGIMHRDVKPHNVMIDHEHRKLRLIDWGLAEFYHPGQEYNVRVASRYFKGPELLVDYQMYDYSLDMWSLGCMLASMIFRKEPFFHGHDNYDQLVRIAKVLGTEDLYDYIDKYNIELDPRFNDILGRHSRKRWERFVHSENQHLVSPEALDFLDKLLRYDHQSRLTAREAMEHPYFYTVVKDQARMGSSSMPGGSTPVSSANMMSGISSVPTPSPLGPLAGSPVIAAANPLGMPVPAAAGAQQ

B1: K14Q MOTS-c (naturally occurring MOTS-c variant) (peptide, UniProt A0A0C5B5G6 1-16, looked up)
peptide: MRWQEMGYIFYPRQLR
notes: MOTS-c, human, natural variant m.1382A>C causing K14Q; source: synthetic peptide, bought: GenScript
In general, Kd refers to the concentration at which binding is half-saturated. For the molecule B1, the Kd came out at 16.2 nM.

B2: MOTS-c (mitochondrial open reading frame of the 12S ribosomal RNA type-c), wild type (peptide)
peptide: MRWQEMGYIFYPRKLR
notes: MOTS-c, human, 16-amino acid microprotein encoded in the mitochondrial 12S rRNA region; also called WT MOTS-c; synthetic MOTS-c; source: synthetic peptide, bought: GenScript; for the co-IP injected into mice (7.5 mg/kg) and found in tissue lysate
In the case of B2, the Kd worked out at 1 nM.
